Test results reported in US20120178701A1 (PALATIN TECHNOLOGIES, published 2012).
Numbered stars: 1 amine (or outer) side, 2 acyl side, 3 side chain; on linkers, the order of the positions; unused ones are H or OH. Bridge positions count the residues as written; N and C are the ends. Square brackets hold non-standard residues; d marks the D form. * marks the point of attachment. Hyp(Bzl) = O-benzyl-hydroxyproline, O=C([C@@H]1C[C@@H](OCc2ccccc2)CN1[*:1])[*:2]; Thr(Bzl) = O-benzyl-threonine, C[C@@H](OCc1ccccc1)[C@H](N[*:1])C(=O)[*:2]; Pro(trans-4-NH2) = O=C([C@@H]1C[C@@H](N[*:3])CN1[*:1])[*:2]; Phe(3-CONH2) = NC(=O)c1cccc(C[C@H](N)C(=O)O)c1; Phe(4-CONH2) = NC(=O)c1ccc(C[C@H](N)C(=O)O)cc1; Met(O2) = CS(=O)(=O)CC[C@H](N)C(=O)O; Hyp = O=C(O)[C@@H]1C[C@@H](O)CN1; Met(O) = CS(=O)CC[C@H](N)C(=O)O; Cit = NC(=O)NCCC[C@H](N)C(=O)O; Orn = NCCC[C@H](N)C(=O)O; Dab = NCC[C@H](N)C(=O)O; Pentanoyl = CCCCC(=O)*

B1: Ac-Gln-cyclo(Asp-Dab-D-Phe-Arg-Trp-Lys)-NH2 (peptide)
peptide: QDXFRWK
HELM: PEPTIDE1{[ac].Q.D.[Dab].[dF].R.W.K.[am]}$PEPTIDE1,PEPTIDE1,3:R3-8:R3$$$V2.0
SMILES: CC(=O)N[C@@H](CCC(N)=O)C(=O)N[C@H]1CC(=O)NCCCC[C@@H](C(N)=O)NC(=O)[C@H](Cc2c[nH]c3ccccc23)NC(=O)[C@H](CCCNC(=N)N)NC(=O)[C@@H](Cc2ccccc2)NC(=O)[C@H](CCN)NC1=O
notes: also called peptide No. 142
B2: Ac-Arg-cyclo(Asp-His-D-Nal 1-Arg-Trp-Lys)-NH2 (peptide)
peptide: RDHXRWK
modifications: N-acetyl; X4 = D-Nal 1 (D-3-(1-naphthyl)alanine); side-chain lactam Asp2-Lys7; C-terminal amide
notes: also called peptide No. 19
B3: Ac-Arg-cyclo(Lys-Dab-D-Phe-Arg-Trp-Asp)-NH2 (peptide)
peptide: RKXFRWD
HELM: PEPTIDE1{[ac].R.K.[Dab].[dF].R.W.D.[am]}$PEPTIDE1,PEPTIDE1,3:R3-8:R3$$$V2.0
SMILES: CC(=O)N[C@@H](CCCNC(=N)N)C(=O)N[C@H]1CCCCNC(=O)C[C@@H](C(N)=O)NC(=O)[C@H](Cc2c[nH]c3ccccc23)NC(=O)[C@H](CCCNC(=N)N)NC(=O)[C@@H](Cc2ccccc2)NC(=O)[C@H](CCN)NC1=O
notes: also called peptide No. 121
B4: Ac-Orn-cyclo(Orn-Asn-D-Phe-Arg-Trp-Glu)-NH2 (peptide)
peptide: XXNFRWE
HELM: PEPTIDE1{[ac].[Orn].[Orn].N.[dF].R.W.E.[am]}$PEPTIDE1,PEPTIDE1,3:R3-8:R3$$$V2.0
SMILES: CC(=O)N[C@@H](CCCN)C(=O)N[C@H]1CCCNC(=O)CC[C@@H](C(N)=O)NC(=O)[C@H](Cc2c[nH]c3ccccc23)NC(=O)[C@H](CCCNC(=N)N)NC(=O)[C@@H](Cc2ccccc2)NC(=O)[C@H](CC(N)=O)NC1=O
notes: also called peptide No. 158
B5: Ac-Arg-cyclo(hGlu-Gln-D-Phe-Arg-Trp-Dab)-NH2 (peptide)
peptide: RXQFRWX
modifications: N-acetyl; X2 = hGlu; D-Phe 4; X7 = Dab; side-chain lactam hGlu2-Dab7; C-terminal amide
notes: also called peptide No. 147
B6: Ac-Arg-cyclo(hGlu-Met(O2)-D-Phe-Arg-Trp-Dab)-NH2 (peptide)
peptide: RXMFRWX
HELM: PEPTIDE1{[ac].R.[O=C([C@H](CCCC(=O)[*:3])N[*:1])[*:2]].[CS(=O)(=O)CC[C@H](N[*:1])C(=O)[*:2]].[dF].R.W.[Dab].[am]}$PEPTIDE1,PEPTIDE1,3:R3-8:R3$$$V2.0
SMILES: CC(=O)N[C@@H](CCCNC(=N)N)C(=O)N[C@H]1CCCC(=O)NCC[C@@H](C(N)=O)NC(=O)[C@H](Cc2c[nH]c3ccccc23)NC(=O)[C@H](CCCNC(=N)N)NC(=O)[C@@H](Cc2ccccc2)NC(=O)[C@H](CCS(C)(=O)=O)NC1=O
B7: Ac-Arg-cyclo(Lys-Dab-D-Phe-Arg-Trp-Asp)-OH (peptide)
peptide: RKXFRWD
HELM: PEPTIDE1{[ac].R.K.[Dab].[dF].R.W.D}$PEPTIDE1,PEPTIDE1,3:R3-8:R3$$$V2.0
SMILES: CC(=O)N[C@@H](CCCNC(=N)N)C(=O)N[C@H]1CCCCNC(=O)C[C@@H](C(=O)O)NC(=O)[C@H](Cc2c[nH]c3ccccc23)NC(=O)[C@H](CCCNC(=N)N)NC(=O)[C@@H](Cc2ccccc2)NC(=O)[C@H](CCN)NC1=O
notes: also called peptide No. 131
B8: Ac-Arg-cyclo(Asp-Ala-D-Phe-Arg-Trp-Lys)-OH (peptide)
peptide: RDAFRWK
HELM: PEPTIDE1{[ac].R.D.A.[dF].R.W.K}$PEPTIDE1,PEPTIDE1,3:R3-8:R3$$$V2.0
SMILES: CC(=O)N[C@@H](CCCNC(=N)N)C(=O)N[C@H]1CC(=O)NCCCC[C@@H](C(=O)O)NC(=O)[C@H](Cc2c[nH]c3ccccc23)NC(=O)[C@H](CCCNC(=N)N)NC(=O)[C@@H](Cc2ccccc2)NC(=O)[C@H](C)NC1=O
notes: also called peptide No. 52
B9: Ac-Arg-cyclo(Asp-Ala-D-Phe-Lys-Trp-Lys)-NH2 (peptide)
peptide: RDAFKWK
HELM: PEPTIDE1{[ac].R.D.A.[dF].K.W.K.[am]}$PEPTIDE1,PEPTIDE1,3:R3-8:R3$$$V2.0
SMILES: CC(=O)N[C@@H](CCCNC(=N)N)C(=O)N[C@H]1CC(=O)NCCCC[C@@H](C(N)=O)NC(=O)[C@H](Cc2c[nH]c3ccccc23)NC(=O)[C@H](CCCCN)NC(=O)[C@@H](Cc2ccccc2)NC(=O)[C@H](C)NC1=O
notes: also called peptide No. 8

Each binder was assayed against T1, human recombinant melanocortin-4 receptor (human, UniProt P32245 1-332) (assay: competitive inhibition of [I125]-NDP-α-MSH, hMC4-R HEK-293 membranes).
T1 construct: whole, on cells; cAMP assays used the whole cells; also called hMC4-R; MC4-R
T1 sequence (P32245 whole entry): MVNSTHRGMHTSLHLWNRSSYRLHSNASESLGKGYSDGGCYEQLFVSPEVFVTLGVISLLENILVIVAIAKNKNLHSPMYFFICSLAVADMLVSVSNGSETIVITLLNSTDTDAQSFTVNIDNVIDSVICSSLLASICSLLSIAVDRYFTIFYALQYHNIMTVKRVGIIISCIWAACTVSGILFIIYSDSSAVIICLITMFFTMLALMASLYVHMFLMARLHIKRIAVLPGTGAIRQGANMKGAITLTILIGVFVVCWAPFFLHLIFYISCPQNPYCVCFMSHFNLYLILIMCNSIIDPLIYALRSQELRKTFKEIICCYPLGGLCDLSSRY
Protocol: A competitive inhibition binding assay is performed using membrane homogenates prepared from HEK-293 cells that express recombinant hMC4-R, hMC3-R, or hMC5-R, and from B-16 mouse melanoma cells (containing endogenous MC1-R). In some instances, HEK-293 cells that express recombinant hMC1-R were employed. In the examples that follow, all MC3-R, MC4-R and MC5-R values are for human recombinant receptors. […] Membrane homogenates were incubated with 0.2 nM (for hMC4-R) 0.4 nM (for MC3-R and MC5-R) or 0.1 nM (for mouse B16 MC1-R or hMC1-R) [I¹²⁵]-NDP-α-MSH (Perkin Elmer) and increasing concentrations of test peptides of the present invention in buffer containing 25 mM HEPES buffer (pH 7.5) with 100 mM NaCl, 2 mM CaCl₂, 2 mM MgCl₂, 0.3 mM 1,10-phenanthroline, and 0.2% bovine serum albumin. After incubation for 60 minutes at 37° C., the assay mixture was filtered and the membranes washed three times with ice-cold buffer. Filters were dried and counted in a gamma counter for bound radioactivity. […] Maximal specific binding (100%) was defined as the difference in radioactivity (cpm) bound to cell membranes in the absence and presence of 1 μM NDP-α-MSH. […] Each assay was conducted in triplicate and the actual mean values are described, with results less than 0% reported as 0%. Ki values for test peptides of the present invention were determined using Graph-Pad Prism® curve-fitting software.
(§1) 9.1 Peptides of the following structures were synthesized by the general methods described above, and averaged MC4-R Ki values for peptides were determined as indicated. […] Ki values marked “ND” were not determined.

Ki [nM]	Binder
15	B1
4	Ac-REH[dF]RW[Orn]-OH (lactam 2-7, also called peptide No. 82) [Ac-Arg-cyclo(Glu-His-D-Phe-Arg-Trp-Orn)-OH]
3	Ac-RD[Hyp(Bzl)][dF]RWK-OH (lactam 2-7, also called peptide No. 54) [Ac-Arg-cyclo(Asp-Hyp(Bzl)-D-Phe-Arg-Trp-Lys)-OH]
100	Ac-RDN[dF]RWK-OH (lactam 2-7, also called peptide No. 56) [Ac-Arg-cyclo(Asp-Asn-D-Phe-Arg-Trp-Lys)-OH]
172	Ac-RDS[dF]RWK-NH2 (lactam 2-7, also called peptide No. 3) [Ac-Arg-cyclo(Asp-Ser-D-Phe-Arg-Trp-Lys)-NH2]
1	Ac-RD[Thr(Bzl)][dF]RWK-NH2 (lactam 2-7, also called peptide No. 14) [Ac-Arg-cyclo(Asp-Thr(Bzl)-D-Phe-Arg-Trp-Lys)-NH2]
30	Ac-RD[Phe(4-CONH2)][dF]RWK-NH2 (lactam 2-7, also called peptide No. 50) [Ac-Arg-cyclo(Asp-Phe(4-(C(═O)-NH2))-D-Phe-Arg-Trp-Lys)-NH2]
30	Ac-RDK[dF]RWK-NH2 (lactam 2-7, also called peptide No. 2) [Ac-Arg-cyclo(Asp-Lys-D-Phe-Arg-Trp-Lys)-NH2]
15	Ac-RD[Phe(3-CONH2)][dF]RWK-NH2 (lactam 2-7, also called peptide No. 49) [Ac-Arg-cyclo(Asp-Phe-(3-(C(═O)-NH2))-D-Phe-Arg-Trp-Lys)-NH2]
115	Ac-RDQ[dF]RWK-OH (lactam 2-7, also called peptide No. 57) [Ac-Arg-cyclo(Asp-Gln-D-Phe-Arg-Trp-Lys)-OH]
7	Ac-RD[Met(O2)][dF]RWK-NH2 (lactam 2-7, also called peptide No. 77) [Ac-Arg-cyclo(Asp-Met-(O2)-D-Phe-Arg-Trp-Lys)-NH2]
3	B2
6	H-R[Orn]H[dF]RWE-NH2 (lactam 2-7, also called peptide No. 99) [Arg-cyclo(Orn-His-D-Phe-Arg-Trp-Glu)-NH2]
0.4	B3
50	B4
0.6	Ac-R[Orn]H[dF]RWE-NH2 (lactam 2-7, also called peptide No. 75) [Ac-Arg-cyclo(Orn-His-D-Phe-Arg-Trp-Glu)-NH2]

Ki [nM]	Binder
9	Ac-RE[Orn][dF]RW[Orn]-OH (lactam 2-7, also called peptide No. 90) [Ac-Arg-cyclo(Glu-Orn-D-Phe-Arg-Trp-Orn)-OH]
20	B5
4	B6
12	Ac-RD[Pro(Bn)][dF]RWK-OH (lactam 2-7, also called peptide No. 55) [Ac-Arg-cyclo(Asp-Pro(Bn)-D-Phe-Arg-Trp-Lys)-OH]
365	Pentanoyl-EH[dF]R[Dab]W-NH2 (lactam 1-5, also called peptide No. 153) [n-C4H9-CO-cyclo(Glu-His-D-Phe-Arg-Dab)-Trp-NH2]
35	B7
4	Ac-RKQ[dF]RWD-NH2 (lactam 2-7, also called peptide No. 151) [Ac-Arg-cyclo(Lys-Gln-D-Phe-Arg-Trp-Asp)-NH2]
5	Ac-RD[Pro(trans-4-NH2)][dF]RWK-NH2 (lactam 2-7, also called peptide No. 80) [Ac-Arg-cyclo(Asp-Pro(4R-NH2)-D-Phe-Arg-Trp-Lys)-NH2]
7	Ac-RE[Orn](Ac)[dF]RW[Orn]-NH2 (lactam 2-7, also called peptide No. 149) [Ac-Arg-cyclo(Glu-Orn(Acetyl)-D-Phe-Arg-Trp-Orn)-NH2]
4	Ac-RD[Hyp][dF]RWK-NH2 (lactam 2-7, also called peptide No. 79) [Ac-Arg-cyclo(Asp-Hyp-D-Phe-Arg-Trp-Lys)-NH2]
6	Ac-RE[Pro(trans-4-NH2)][dF]RW[Orn]-NH2 (lactam 2-7, also called peptide No. 112) [Ac-Arg-Cyclo(Glu-Pro(4R-NH2)-D-Phe-Arg-Trp-Orn)-NH2]
167	Ac-REN[dF]RW[Orn]-OH (lactam 2-7, also called peptide No. 91) [Ac-Arg-cyclo(Glu-Asn-D-Phe-Arg-Trp-Orn)-OH]
15	Ac-REK[dF]RW[Orn]-NH2 (lactam 2-7) [Ac-Arg-cyclo(Glu-Lys-D-Phe-Arg-Trp-Orn)-NH2]
8	Ac-RE[Met(O2)][dF]RW[Orn]-NH2 (lactam 2-7, also called peptide No. 100) [Ac-Arg-cyclo(Glu-Met(O2)-D-Phe-Arg-Trp-Orn)-NH2]
9	Ac-RE[Met(O)][dF]RW[Orn]-NH2 (lactam 2-7, also called peptide No. 111) [Ac-Arg-cyclo(Glu-Met(═O)-D-Phe-Arg-Trp-Orn)-NH2]
873	Ac-RDK[dF][Cit]WK-NH2 (lactam 2-7, also called peptide No. 116) [Ac-Arg-cyclo(Asp-Lys-D-Phe-Cit-Trp-Lys)-NH2]

Each binder was assayed against T1, human recombinant melanocortin-4 … (assay: competitive inhibition of Eu-NDP-α-MSH (TRF), hMC4-R HEK-293 membranes).
Protocol: After incubation for 90 minutes at 37° C., the reaction was stopped by filtration over AcroWell 96-well filter plates (Pall Life Sciences). The filter plates were washed 4 times with 200 μL of ice-cold phosphate-buffered saline. DELFIA Enhancement solution (PerkinElmer Life Sciences) was added to each well. The plates were incubated on a shaker for 15 minutes and read at 340 nm excitation and 615 nm emission wavelengths. Each assay was conducted in duplicate and mean values were utilized. Ki values were determined by curve-fitting with Graph-Pad Prism® software using a one-site fixed-slope competition binding model.
as §1

Ki [nM]	Binder
0.7	Ac-RD[Hyp(Bzl)][dF]RWK-NH2 (lactam 2-7, also called peptide No. 15) [Ac-Arg-cyclo(Asp-Hyp(Bzl)-D-Phe-Arg-Trp-Lys)-NH2]
144	B8
3020	B9
19	Ac-RDA[dF]RWK-NH2 (lactam 2-7, also called peptide No. 9) [Ac-Arg-cyclo(Asp-Ala-D-Phe-Arg-Trp-Lys)-NH2]
